{"source": "patent US20220332804A1", "about": "(CSL INNOVATION, published 2022)", "binders": {"B1": {"name": "RF16-226 (antibody, human IgG4 S228P, lambda)", "heavy": "not shown", "light": "SYELTQPPSVSVSPGQTARITCSGDALTSKYVAWYQQKSGLAPLLVIYEDTRRPSGIPAKFSGSSSGSVATLTISGAHGDDEADYYCYSTDASGHQRVFGGGTKLTVLSQPKAAPSVTLFPPSSEELQANKATLVCLISDFYPGAVTVAWKADGSPVKAGVETTKPSKQSNNKYAASSYLSLTPEQWKSHRSYSCQVTHEGSTVEKTVAPTECS", "notes": "pH-dependent anti-C2 antibody from a phage display library; also called WT"}}, "assay_in_all_cases": "SPR, KD relative to WT C2;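 note: biacore SPR at 37 °C, anti-C2 mAbs captured via immobilised goat anti-human IgG, C2 alanine or serine surface mutants as analytes, 1:1 model fitted, double-referenced sensograms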", "key": {"human C2 H446A": {"target": "T1, human C2 H446A (human, UniProt P06681 21-752)", "T1 sequence": "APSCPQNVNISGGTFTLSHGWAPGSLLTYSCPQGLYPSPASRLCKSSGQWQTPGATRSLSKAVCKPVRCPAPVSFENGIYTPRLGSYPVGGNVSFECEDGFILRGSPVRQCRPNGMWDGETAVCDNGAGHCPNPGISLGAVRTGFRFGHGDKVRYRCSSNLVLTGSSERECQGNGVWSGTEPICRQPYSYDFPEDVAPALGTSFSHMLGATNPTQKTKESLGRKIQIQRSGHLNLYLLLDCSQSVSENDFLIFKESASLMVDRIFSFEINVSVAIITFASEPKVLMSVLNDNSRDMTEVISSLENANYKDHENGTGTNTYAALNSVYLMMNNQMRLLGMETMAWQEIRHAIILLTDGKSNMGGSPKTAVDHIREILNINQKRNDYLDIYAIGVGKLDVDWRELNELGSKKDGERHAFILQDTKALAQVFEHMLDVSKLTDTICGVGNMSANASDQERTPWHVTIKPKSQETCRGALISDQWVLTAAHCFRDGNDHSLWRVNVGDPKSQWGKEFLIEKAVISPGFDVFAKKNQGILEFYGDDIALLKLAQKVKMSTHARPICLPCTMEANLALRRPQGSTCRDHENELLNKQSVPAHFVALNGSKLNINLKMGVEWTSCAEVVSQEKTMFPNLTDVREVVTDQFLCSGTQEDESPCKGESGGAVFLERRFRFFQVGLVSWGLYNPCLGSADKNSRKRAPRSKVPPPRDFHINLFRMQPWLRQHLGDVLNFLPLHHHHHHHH"}, "human C2 A717S": {"target": "T2, human C2 A717S (human, UniProt P06681 21-752)", "T2 sequence": "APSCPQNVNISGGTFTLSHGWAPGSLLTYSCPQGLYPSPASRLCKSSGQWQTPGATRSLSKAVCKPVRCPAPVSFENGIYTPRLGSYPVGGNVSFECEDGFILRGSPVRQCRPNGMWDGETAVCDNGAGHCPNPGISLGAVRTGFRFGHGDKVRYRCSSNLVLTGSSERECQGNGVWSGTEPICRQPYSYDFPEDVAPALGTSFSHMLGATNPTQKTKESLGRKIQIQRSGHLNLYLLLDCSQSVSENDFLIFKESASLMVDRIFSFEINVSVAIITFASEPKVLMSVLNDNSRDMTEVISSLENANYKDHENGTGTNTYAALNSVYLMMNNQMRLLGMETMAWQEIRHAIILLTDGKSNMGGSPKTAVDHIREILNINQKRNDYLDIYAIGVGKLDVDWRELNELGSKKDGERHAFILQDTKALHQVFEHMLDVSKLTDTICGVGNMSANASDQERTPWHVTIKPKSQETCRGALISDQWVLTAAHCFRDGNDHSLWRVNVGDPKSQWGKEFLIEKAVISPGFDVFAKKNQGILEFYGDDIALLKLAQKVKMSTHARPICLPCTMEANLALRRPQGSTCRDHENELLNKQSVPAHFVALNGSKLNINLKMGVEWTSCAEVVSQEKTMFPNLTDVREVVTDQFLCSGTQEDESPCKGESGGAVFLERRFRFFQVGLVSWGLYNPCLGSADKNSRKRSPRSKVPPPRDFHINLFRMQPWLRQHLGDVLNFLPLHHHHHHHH"}, "human C2 E490A": {"target": "T3, human C2 E490A (human, UniProt P06681 21-752)", "T3 sequence": "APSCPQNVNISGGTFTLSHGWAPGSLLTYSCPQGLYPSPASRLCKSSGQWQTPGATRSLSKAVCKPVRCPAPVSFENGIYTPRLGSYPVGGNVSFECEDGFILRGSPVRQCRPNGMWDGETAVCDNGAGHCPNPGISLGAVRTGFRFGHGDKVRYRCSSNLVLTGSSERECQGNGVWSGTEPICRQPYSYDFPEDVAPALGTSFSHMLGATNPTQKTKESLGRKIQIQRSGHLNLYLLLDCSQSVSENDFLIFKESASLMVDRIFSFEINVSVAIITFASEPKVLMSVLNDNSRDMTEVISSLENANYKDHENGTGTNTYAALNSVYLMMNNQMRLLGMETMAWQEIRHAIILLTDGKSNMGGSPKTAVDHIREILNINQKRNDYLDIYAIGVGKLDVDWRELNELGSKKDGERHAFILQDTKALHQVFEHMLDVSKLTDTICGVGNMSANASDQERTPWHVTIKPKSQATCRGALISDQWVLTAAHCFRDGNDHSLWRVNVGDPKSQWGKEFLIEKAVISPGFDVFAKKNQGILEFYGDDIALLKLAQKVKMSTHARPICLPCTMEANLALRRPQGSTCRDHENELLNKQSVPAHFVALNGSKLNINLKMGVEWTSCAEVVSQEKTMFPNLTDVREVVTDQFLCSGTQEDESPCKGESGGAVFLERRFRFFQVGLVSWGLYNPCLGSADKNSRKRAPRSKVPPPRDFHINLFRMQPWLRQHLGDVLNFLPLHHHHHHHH"}, "human C2 V418A": {"target": "T4, human C2 V418A (human, UniProt P06681 21-752)", "T4 sequence": "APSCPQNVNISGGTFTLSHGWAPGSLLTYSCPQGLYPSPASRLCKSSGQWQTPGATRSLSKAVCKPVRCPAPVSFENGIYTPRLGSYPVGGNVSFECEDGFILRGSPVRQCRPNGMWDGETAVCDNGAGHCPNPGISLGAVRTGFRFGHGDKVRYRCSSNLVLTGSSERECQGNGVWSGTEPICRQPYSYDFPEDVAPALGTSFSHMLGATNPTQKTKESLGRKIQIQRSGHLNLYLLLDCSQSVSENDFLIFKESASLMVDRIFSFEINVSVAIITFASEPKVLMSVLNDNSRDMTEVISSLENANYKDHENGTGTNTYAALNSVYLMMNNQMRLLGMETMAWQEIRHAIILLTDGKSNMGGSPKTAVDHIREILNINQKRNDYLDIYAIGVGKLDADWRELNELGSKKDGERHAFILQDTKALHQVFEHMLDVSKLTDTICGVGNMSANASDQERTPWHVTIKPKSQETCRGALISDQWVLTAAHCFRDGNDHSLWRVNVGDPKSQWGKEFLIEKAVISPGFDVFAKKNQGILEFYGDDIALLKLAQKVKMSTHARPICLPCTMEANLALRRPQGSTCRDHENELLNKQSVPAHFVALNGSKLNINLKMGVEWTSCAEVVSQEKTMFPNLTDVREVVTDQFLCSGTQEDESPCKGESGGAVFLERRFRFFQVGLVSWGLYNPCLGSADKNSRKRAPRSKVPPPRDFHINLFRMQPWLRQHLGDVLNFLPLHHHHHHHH"}}}
{"binder": "B1", "values": [{"measurement": "Fold diff", "setting": "human C2 H446A", "value": 2, "unit": "fold"}, {"measurement": "Fold diff", "setting": "human C2 A717S", "value": 41, "unit": "fold"}, {"measurement": "Fold diff", "setting": "human C2 E490A", "value": 2, "unit": "fold"}, {"measurement": "Fold diff", "setting": "human C2 V418A", "value": 1, "unit": "fold"}]}
